The data set concerns the target pseudotyped SARS-CoV-2 (spike on lentivirus), active (SARS-CoV-2) (UniProt P0DTC2). As to the kind of experiment: ELONA. The note with it: pH 7.2, pH 7.4, room temperature ([…], MST 10 min).

On to “CCCGACCAGCCACCATCAGCAACTCTTCCGCGTCCATCCCTGCTG [SARS2-AR10]”, for which the Kd – broadly, the constant that tells how readily two partners part at equilibrium – was 79 nM.

For the origin of these results see PMC8457657.
